Data: publication PMC3130806

Columns and labels:
[1] = target: FITC-labeled native contortrostatin (Agkistrodon contortrix contortrix); test: fluorescence polarisation
[2] = target: FITC-labeled vicrostatin (Agkistrodon contortrix contortrix | not stated); test: fluorescence polarisation

| Substance | Kd [1] [nM] | Kd [2] [nM] |
| --- | --- | --- |
| purified soluble αvβ3 integrin (from UniProt P06756 31-1048; P05106 27-718) (receptor) | 6.6 | 7.4 |
| purified soluble αvβ5 integrin (from UniProt P06756 31-1048; P18084 24-719) (receptor) | 19.5 | 41.2 |
| soluble recombinant α5β1 integrin (from UniProt P08648 42-1049; P05556 21-728) (receptor) | 191 | 15.2 |
